Assay results as given in the DeepSol protein solubility set.

Test: soluble on expression in E. coli; label from the status in PepcDB or PDB records

Sequence	soluble on expression in E. coli
VSQVHRILNCRGTRIHAVADSPPDQQGPLVVLLHGFPESWYSWRHQIPALAGAGYRVVAIDQRGYGRSSKYRVQKAYRIKELVGDVVGVLDSYGAEQAFVVGHDWGAPVAWTFAWLHPDRCAGVVGISVPFAGRGVIGLPGSPFGERRPSDYHLELAGPGRVWYQDYFAVQDGIITEIEEDLRGWLLGLTYTVSGEGMMAATKAAVDAGVDLESMDPIDVIRAGPLCMAEGARLKDAFVYPETMPAWFTEADLDFYTGEFERSGFGGPLSFYHNIDNDWHDLADQQGKPLTPPALFIGGQYDVGTIWGAQAIERAHEVMPNYRGTHMIADVGHWIQQEAPEETNRLLLDFLGGLRP	soluble
MAHHHHHHMNIVTSYFLVRKLPGTLAMGGDVLEHQNARQREYMECLRLNQQHPGVASIHLIVEGADAYEHLLKHVLCNPHFQNASTLTTSTAPASARHRRRHAAPIVPVVRFASGMPLYADFFAYANQLLSHRLTMVCNADVYLSPEHFSLSAVEDLFRQSSTLPPPHAAPCGSCQPSTADLAEREAMRPKSAPKRANPLALALTRYESDSPLDAPFLFDYRGSHDAFVLVPPVPPSFVRSVAHPQNCYKAENIVLHELQQSGYLTLNPTLGDGVRLVHRHATDLRQWFPPVDESRYGRAQPNTLAQAASRIREEARVRSLPPSV	not soluble
MRTLGLDLGTKTLGVAVSDELGLTAQGLETIAIDTERGDYGLKRLRAIIDEYGVDTIVVGWPKNMNGTLGPRAEASERFAAKLREEFSLPVVLRDERLSTMAAERMLIAADVSRKKRRKVIDKMAAAVILQSYLDSKR	not soluble
MSLKKSWLGYAQGYLLYRDLNNHSMTAIRISPETLEQDGTVLLPDCHTEGQNILFTDGEYINQIAASRDDGFVVRIFATSTEPVLQQELQLKLARKCLHACGISLFDLEKDLHIISTGFDEESAILGAGREFALMKTANGKIYYTGKYQSLGIKQGGPSAGKWVELPITKSPKIVHFSVGHDGSHALLVAEDGSVFFTGSASKGEDGESTKSRRQSKPYKPKKIIKMEGKIVVYTACNNGSSSVISKDGELYMFGKDAIYSDSSSLVSDLKGHFVTQVAMGKAHTCVLMKNGEVWTFGVNNKGQCGRDTGAMNQGGKGFGVENMATAMDEDLEEELDEKDEKSMMCPPGMHKWKLEQCMVCTVCGDCTGYGASCVSSGRPDRVPGGICGCGSGESGCAVCGCCKACARELDGQEARQRGILDAVKEMIPLDLLLAVPVPGVNIEEHLQLRQEEKRQRVIRRHRLEDGRGPLVFAGPIFMNHREQALARLRSHPAQLKHKRDKHKDGSGDRGEKDASKITTYPPGSVRFDCELRAVQVSCGFHHSVVLMENGDVYTFGYGQHGQLGHGDVNSRGCPTLVQALPGPSTQVTAGSNHTAVLLMDGQVFTFGSFSKGQLGRPILDIPYWNAKPAPMPNIGSKYGRKATWIGASGDQTFLRIDEALINSHEGHHHHHH	not soluble
MASFCNSWKRKHNEAIKLSEEIDGMILERSSLAETSSYARGHASYMRRKITILANGVQTLKNLLAESQGKSISAKEMSRCKDMVEDLRSKAYQMASALDMLKFSNIGSLLGQDDIMSRVIDMDNQEIVGFQRTTMKGKLKGVMHLKREALAMNMELGLQTRLIDRLDHHVDVSASDVEELQRSIDTGVCMTLLLSVVVVVFGLSEFVKFGRRRILG	soluble
MYVLIGGAGLIGQQLARQVLDQGHTVAVIDQDPQVCKMVRDRLGAMAFEGSAVNTDILLEAGICRADAVAAVLRQDALNLALVTLACHYGVSRIISRISQQDFIEPMRLAGAHHIISTVDLVVSTMVNAIECPQVESMLHFEQGQIEVFKLTLDSQSPVIGRSVAAIAQDRNFPSSSLIIGYQSHPQADLVIPSGNTVLEANATVLLATKPGLVQSLVNFLMPSLFSPLQPAGVLHQLEHHHHHH	soluble
MGSDKIHHHHHHMDYKELLEVLRKDLNFKKVDLYQEKSNKTRYREIELGEKSPTIEELISFTDTLGIRLSEFLYRGDITPLAASYYGKRKIEVASLINNFPELEKQFPEIYKDRFKNLQCYTLFTLCLIISKSLNNSLYTFKNKDIRELKNFYKNREVILGADYAILSHLYMAVPEYSNELDFLTEKLFPINQSYGDIHDHAVQLCIKNAVTVFLEKKDFEKADYFLEQFDIVRKVPSFILDGTINLEMIYLKHLRNFLKKRNMEEYLKAVNIVNLFSQLGENDTYKELVKEVTEIARKENFEVPSSLNIIADTFEGVGYLKSDK	not soluble
MSLTKIAKVIVDVPLMQTDKPFSYKIPEALLSVITAGSRVHVPFGKGNRLLQGFVVSVDSGSAQHLKTIIDVLDVEPVLNQEQLELADQMRKTVFSYKISILKSMIPNLLNSNYDRLLKPKKGLSQEEKDLIFAGKKQINFSQLNQEIQTKSLSLIQAGKIDIEYLAKDRKTIKTQKCYDVNLEKLSHLLINKRAKKRQELKDYLANHPQSGPLSDLYRLFSREVVHYFIKEAVLNISQVEVNRTQSYFENIIQSDFLDLNPEQQTAVEQITAAIGSSNKPYLLEGITGSGKTEVYLHVIDQTLKLGKTAIVLVPEISLTPQMTSRFISRFGSQVAIMHSGLSDGEKFDEWRKMKSNQAKVVVGARSAIFSPLKNIGAIIIDEEHEATYKQESSPRYHAREVALLRAQYHQAVLVLGSATPSIESRARASRGVYNFLQLSQRANPQAHIPKVKIVDFRDYIGQQKVSNLTPVLLDKIKDRLIKKEQVVLMLNRRGYSSFIMCRDCGYVDNCPNCDISLTLHMDTKTMNCHYCGFLKGIPYNCPNCQSRQIRYYGTGTQKAYDELKQVLPEARILRMDVDTTKRKGAHEKILTKFGRHEADILLGTQMIAKGLDFPNVTLVGVLNADTSLNLPDFRSSERTFQLLTQVAGRAGRANKPGEVLIQTYNPNHYAIQLAREQDYEAFYRYEMRIRKALSYPPYYFTVGLTLSHKDEQEVIKKSYEIVTLIKEGLTDKIKILGPTPKPVARTHNLYHYQIIIKYRFEDQLEIVLNHILDLTQAKENKKLRLIIDHEPQSEGHHHHHH	soluble
MLPQHDFIFFFFAFSILSPSPPPLSSFSSPPPPSFSFFIASTSFFSSQPPSHPRVKKCIDTHTTPSTLTFFSAHHPLASPKIHYEVVLYYSFFFKFRLRLLLVSVAHQLLE	not soluble
MILNPQKLSVDFGNGITATEPIIPRRYTLTHSDITAKLFLNIGLTYAYNKMTTMRDEVLGEWVKKSQDYSYQVFLHVDGRLGPKTTAIRNKIFRRELPLALEAIRYGDKRFFNAHPYLDNAPITVFFISTNPNFNKIENWGTFSDYNIESYYRNLEHHHHHH	soluble
MARPIGIYEKATPKHFTWLERLNFAKELGFDFVELSIDESDERLARLDWSKKERLELVNAIFETGVRIPTITFSGHRRYPLGSNDSEKEARALEMMEKCIEFAQDIGIRNIQLAGYDVYYEEKSPKTRARFLKNLRQACTWAEEAQVILSIEIMDDPFINSIEKYLAVEKEIDSPYLFVYPDAGNVSAWGNDLWSEFYIGHKSIAALHLKDTYAVTESSKGQFRDVPFGQGCVDWEAMFDVLKKTNYNGPFLIEMWSENCETVEETRAAIKEAQDFLYPLIEKAGLR	not soluble
MSLDSTTIIIYGEKLSDSQRAEVKELLEISDQEMVEEHDVTGQDYADYINGNPRSNMYSSAGIILESQGAGLEVNIVTPENITEVTAEMYENALLTAGAENATVNVVSPVQVSGHSALTGIYKAYDVEGEQLDKERMELANEELNVATDLVDNGDVNQEEVSNLLTEIKKMIAEQNPATREDVEQIVSEQLDQLEINLSEQDRQMLVDLFDKMKDLEIDFGAVKEQLDSITNSIVEKAEDLGLDEGFWDKVANFFRDLFRSIGNLFGEGHHHHHH	soluble
MNQINIEIAYAFPERYYLKSFQVDEGITVQTAITQSGILSQFPEIDLSTNKIGIFSRPIKLTDVLKEGDRIEIYRPLLADPKEIRRKRAAEQAAAKDKEKGA	soluble
MGSSHHHHHHGGTGENLYFQGGSGRDREVVECLLGMEQWLRELNRPLASAGVGGSVDVGASSSLLSGFPPCMEGDALRSAYRSALSELRLLVLGVLNTMPWWRVVETVAGNPPAAQTGGARTASAGGGDNSSSEAGAARVAARHAGGWDRSAAALHVITRWHARLQIAFERVCLVLIDQSQQTVRGVLEVLLKPCQLRPPVRDGARRSIPSDSFIRVLNAVATKYSPVYVVELLEGCIADFMPRRRWAERRHHVACTAVLLYLALEGHTPAYHPQLGNSYSLQRAVRLLTSLRSRRADGRCALSGSPWLLPHATGSYSLTLP	not soluble
